Here are results for one molecule from US5185323A, “Suppression of megakaryocytopoiesis employing platelet factor 4 antimaturation factor” (Temple University, priority 1988, dated 1993).

Format in all cases: cell-based
Test [1] has as its system human megakaryocyte progenitor cells. The experiment in a line: Megakaryocyte colony formation in co-culture with autologous T lymphocyte subsets. An excerpt:
(§1) Megakaryocyte colonies were cloned in plasma clot cultures as previously described (e.g., Blood 61: 384-9, 1983). The cell population cultured consisted of either unseparated high density marrow mononuclear cells (MNC), or MNC depleted of adherent monocytemacrophages (MO) and T lymphocytes using methods previously reported (e.g., J. Immunol. 2915-2925, 1987). To provide essential growth factors, all cultures were supplemented with normal human AB serum (30% v/v) derived from the platelet-poor plasma of a single donor.
Megakaryocyte colonies were enumerated by indirect immunofluorescence assay utilizing a rabbit anti-human platelet glycoprotein antiserum as a megakaryocyte probe (ibid.). […] A cluster of three or more intensely fluorescent cells was counted as one colony. Unless otherwise stated, all data are reported as the mean± S.D. of colonies enumerated.
Since the majority of marrow T lymphocytes are of the suppressor type, and PF4 is described in the prior art as inactivating these cells, the results obtained in Examples IA and IB were unexpected. In fact, it was anticipated that colony formation might be increased because of unopposed T helper activity. Putative progenitor cell-T cell-PF4 interactions were accordingly studied. Control target cells, depleted of adherent monocytes and T lymphocytes were cloned in plasma clots under standard conditions (Table 3). Aliquots of these target cells were also cloned in the presence of either CD4^+ helper, or CD8^+ suppressor T cells alone, or T effector cells plus PF4 at two different concentrations, 2.5 and 25 μg/ml.

The test system is the same in test [2]. Put plainly: Megakaryocyte colony formation in plasma clot culture, MNC depleted of adherent monocyte-macrophages and T lymphocytes. The note with it: PF4 25 μg/ml; four experiments (FIG. 3).
Description: FIG. 3 graphically illustrates the effect of highly purified platelet factor 4 (PF4) on normal human megakaryocyte colony formation in vitro in the absence of accessory marrow immunocytes. Isolated bone marrow mononuclear cells (MNC) were depleted of adherent monocyte-macrophages and lymphocytes and treated as detailed in the Examples. Each line represents the result of a single experiment performed in quadruplicate culture plates. p values in comparison to control are indicated for each experiment.
as §1
Megakaryocyte colonies were enumerated by indirect immunofluorescence assay utilizing a rabbit anti-human platelet glycoprotein antiserum as a megakaryocyte probe (ibid.). […] A cluster of three or more intensely fluorescent cells was counted as one colony. Unless otherwise stated, all data are reported as the mean± S.D. of colonies enumerated. […]

Test [3] has as its system normal human erythroid colony forming units (CFU-E). Put plainly: Erythroid colony formation (CFU-E) in plasma clot culture (specificity assay). The note with it: concentrations of PF4 which consistently inhibited megakaryocyte colony formation; FIG. 4. An excerpt: FIG. 4 graphically illustrates the effect of highly purified platelet factor 4 (PF4) on clonogenicity of normal human erythroid colony forming units (CFU-E) in plasma clot culture in the absence of accessory marrow immunocytes. Isolated bone marrow mononuclear cells (MNC) were depleted of adherent monocyte-macrophages and lymphocytes, as detailed in the Examples. After seven days in culture, plates were harvested and fixed and CFU-E detected by benzidine staining. Results of three separate experiments, each performed in quadruplicate culture plates, are shown. The effect of purified protein on inhibition of erythroid colony formation was tested.

Test [4] relates to normal human megakaryocyte progenitor cells. Put plainly: Megakaryocyte colony formation in plasma clot culture, unseparated marrow MNC (proliferation assay). The note with it: control ~11 colonies. The protocol: FIG. 1 graphically illustrates the effect of highly purified platelet factor 4 (PF4) on clonogenicity of normal human megakaryocyte progenitor cells in plasma clot culture. Bone marrow mononuclear cells (MNC) were isolated by density gradient sedimentation and then suspended in the appropriate culture medium, to which was added PF4 in the amounts indicated. The cell suspensions were plated, and cultured for twelve days at 37° C. in a humidified environment containing 5% CO2, and resulting megakaryocyte colonies were then enumerated in situ with an indirect immunofluorescence assay using a polyspecific antiplatelet glycoprotein antiserum as probe. Aggregate results (mean±S.D.) of five separate experiments are shown. Numbers at top of bars indicate p value in comparison to control (CONT.).
Megakaryocyte colonies were cloned in plasma clot cultures as previously described (e.g., Blood 61: 384-9, 1983). […]
Megakaryocyte colonies were enumerated by indirect immunofluorescence assay utilizing a rabbit anti-human platelet glycoprotein antiserum as a megakaryocyte probe (ibid.). […] A cluster of three or more intensely fluorescent cells was counted as one colony. […]
To determine if PF4 could modify megakaryocyte colony formation in vitro, a screen assay was performed by adding various amounts of pure protein to unseparated marrow MNC. […] In the presence of 2.5 μg/ml of PF4, ~7 colonies were counted. […]

B1: platelet factor 4 (protein, UniProt P02776 32-101, looked up)
Platelet factor 4: EAEEDGDLQCLCVKTTSQVRPRHITSLEVIKAGPHCPTAQLIATLKNGRKICLDLQAPLYKKIIKKLLES
notes: Megakaryocyte/platelet-specific α-granule protein purified from outdated human platelets by heparin-agarose chromatography, >95% pure
B1: in test [1], the “dependence of colony suppressive effect on T lymphocytes” value was “indifferent to the presence of T lymphocytes”. For the same molecule, the “effect on colony formation in presence of CD4+ (helper) cells” value in test [1] (PF4 2.5 μg/ml) was “unchanged”. The “megakaryocyte colonies enumerated (mean ± SEM)” value in test [1] (Study 1, C/T4 2:1 + PF4 2.5 μg/ml, control 7 ± 2, C/T4 alone 11 ± 0) is 8 ± 1 colonies; in test [1] (Study 1, C/T8 2:1 + PF4 2.5 μg/ml, control 7 ± 2, C/T8 alone 6 ± 1), 18 ± 2 colonies; in test [1] (Study 2, C/T4 2:1 + PF4 2.5 μg/ml, control 4 ± 1, C/T4 alone 3 ± 1), 5 ± 1 colonies; in test [1] (Study 3, C/T8 2:1 + PF4 2.5 μg/ml, control 11 ± 3), 7 ± 2 colonies; in test [1] (Study 3, C/T8 2:1 + PF4 25 μg/ml, control 11 ± 3, p < .05) it was 1 ± 0 colonies; in test [1] (Study 4, C/T4 2:1 + PF4 2.5 μg/ml, control 116 ± 6, C/T4 alone 141 ± 22), 122 ± 29 colonies. Also, the “megakaryocyte colonies enumerated (mean ± SEM)” value in test [1] (Study 4, C/T4 2:1 + PF4 25 μg/ml, control 116 ± 6, C/T4 alone 141 ± 22, p < .05) amounted to 8 ± 1 colonies; in test [1] (Study 4, C/T8 2:1 + PF4 2.5 μg/ml, control 116 ± 6, C/T8 alone 163 ± 13, p < .05), 87 ± 15 colonies; in test [1] (Study 4, C/T8 2:1 + PF4 25 μg/ml, control 116 ± 6, C/T8 alone 163 ± 13, p < .05), 13 ± 2 colonies; in test [1] (Study 5, C/T4 2:1 + PF4 25 μg/ml, control 33 ± 6, C/T4 alone 39 ± 4, p < .05), 3 ± 1 colonies; in test [1] (Study 5, C/T8 2:1 + PF4 2.5 μg/ml, control 33 ± 6), 33 ± 4 colonies; in test [1] (Study 5, C/T8 2:1 + PF4 25 μg/ml, control 33 ± 6, p < .05), 3 ± 1 colonies. In addition, the “effect on colony formation in presence of T cells” value in test [1] (high concentration of PF4) was “highly significant decrease in colony formation”. For the same molecule, the “effect on megakaryocyte colony formation” value in test [2] was “greatly inhibited in each of the experiments”. Further, in test [2], the “mean inhibition of megakaryocyte colony formation” value was ~ 78%. Further, the “inhibition of erythroid colony formation units (CFU-E)” value in test [3] was “no inhibition”. Also, the megakaryocyte colonies enumerated in test [4] (PF4 2.5 μg/ml, not significant (p>0.05), aggregate of five experiments) is given as ~ 7 colonies per 2×105 MNC plated; in test [4] (PF4 25 μg/ml, p<0.007, aggregate of five experiments), “five”.
